In patent US20110318339A1 (FABRUS, published 2011):
Changes are numbered by the printed parent chain. Numbers in names are those of the source.

Experiments:
[1] = target: T1, Recombinant Human DLL4 (Cat# 1506-D4/CF, R&D Systems) (human, UniProt Q9NR61 27-529); experiment: ELISA, DLL4 coated
T1 construct: Bought protein; also called rHuman DLL4; hDLL4

[2] = target: T1, Recombinant Human DLL4 (Cat# …); experiment: ELISA, DLL4 coated, estimated from dose-dependent binding
Method: (§1) The plate was blocked by adding 1% BSA in Tris-buffered Saline Tween (TBST) and incubating for 1 hour at room temperature followed by washing 2 times with 150 μl TBST. A Fab antibody was serially diluted in 1% BSA in PBS. A 50 μl aliquot of each serial dilution was added, in triplicate, to each well and the plate was incubated for 1 hour at room temperature followed by washing 2 times with TBST. 50 μl of either goat anti-human kappa HRP conjugated secondary antibody (Cat # A7164-1 mL, Sigma-Aldrich) or goat anti-human lambda HRP conjugated secondary antibody (Cat # L1645-1 ml, Sigma-Aldrich), diluted 1:1000 in 1% BSA in PBS, was added to each well and the plate was incubated for 30 minutes at room temperature followed by washing 3 times with 200 μl TBST. Finally, 50 μl TMB one-component reagent (Cat # TMBW-1000-01, BioFax) was added and allowed to develop for 2 minutes at room temperature. The reaction was immediately halted by the addition of 50 μl 0.5M H₂SO₄ and the absorbance at 450 nm was measured using an ELISA plate reader.

[3] = target: T2, recombinant human DLL4 (Cat# 1506-D4/CF, R&D Systems) (human, UniProt Q9NR61 27-529); experiment: ELISA, DLL4 coated, Fab 0.16 nM
T2 construct: Bought protein; also called hDLL4; rHuman DLL4
Method: as §1

[4] = target: T2, recombinant human DLL4 (Cat# …); experiment: ELISA, DLL4 coated, Fab 0.31 nM
Method: as §1

[5] = target: T2, recombinant human DLL4 (Cat# …); experiment: ELISA, DLL4 coated, Fab 5 nM
Method: as §1

[6] = target: T2, recombinant human DLL4 (Cat# …); experiment: ELISA, DLL4 coated, Fab 1.3 nM
Method: as §1

[7] = target: T2, recombinant human DLL4 (Cat# …); experiment: ELISA, DLL4 coated, Fab 20 nM
Method: as §1

[8] = target: T2, recombinant human DLL4 (Cat# …); experiment: ELISA, DLL4 coated, Fab 2.5 nM
Method: as §1

[9] = target: T2, recombinant human DLL4 (Cat# …); experiment: ELISA, DLL4 coated, Fab 0.63 nM
Method: as §1

[10] = target: T2, recombinant human DLL4 (Cat# …); experiment: ELISA, DLL4 coated, Fab 10 nM
Method: as §1

[11] = target: T2, recombinant human DLL4 (Cat# …); experiment: ELISA, DLL4 coated, Fab 2.22 nM
Method: as §1

[12] = target: T2, recombinant human DLL4 (Cat# …); experiment: ELISA, DLL4 coated, Fab 6.67 nM
Method: as §1

[13] = target: T2, recombinant human DLL4 (Cat# …); experiment: ELISA, DLL4 coated, Fab 0.74 nM
Method: as §1

[14] = target: T2, recombinant human DLL4 (Cat# …); experiment: SPR (ProteOn), hDLL4 amine-coupled on chip
Method: In this example, the binding affinities of selected anti-DLL4 Fabs to recombinant human DLL4 (hDLL4, Cat# 1506-D4/CF, R&D Systems) were analyzed using Surface Plasmon Resonance (SPR) (Biosensor Tools, Salt Lake City, Utah). The Fabs analyzed include germline-derived antibodies and germline-modified DLL4 antibodies. Recombinant hDLL4 was immobilized on a SPR chip using amine coupling at three different surface densities. The Fabs were serially diluted 3-fold, with an initial concentration of 1 μM. Binding studies were run on a ProteOn system using a GLM sensor chip in 10 mM HEPES, pH 7.4, 150 mM NaCl, 0.01% Tween-20, and 0.1 mg/ml BSA at 25° C. The response data from each surface was globally fit to determine the binding constants.

B1: Fab H:APFF LTH & L:NDH LS (Fab, V domains shown)
VH: QVQLVQSGAEVKKPGASVKVSCKASGYTFTSYYMHWVRQAPGQGLEWMGIILPTGHSTSYAQKFQGRVTMTRDTSTSTVYMELSSLRSEDTAVYYCAREEYAPFSAEYFQFWGQGTLVTVSS
VL: EIVLTQSPATLSLSPGERATLSCRASQNVDHYLAWYQQKPGQAPRLLIYDALNRSTGIPARFSGSGSGTDFTLTISSLEPEDFAVYYCQQRSNWPPWTFGQGTKVEIKR
notes: Fab, kappa light chain
fold increased binding affinity against the antibody mutants with heavy chain H:APFF ALTH [1]: ~10 fold

B2: Fab H:APFF NLTH & L6_IGKJ1*01 (Fab, V domains shown)
VH: B1 VH with I51N
VL: not shown
notes: Fab, kappa light chain; also called H:APFF NLTH & L:wt
Kd [2]: 1 to 10 nM

B3: Fab H:APFF TLATH & L6_IGKJ1*01 (Fab, V domains shown)
VH: B1 VH with I51T, P53A
VL: not shown
notes: Fab, kappa light chain; also called H:APFF TLATH & L:wt
Kd [2]: > 100 nM

B4: Fab H:APFF TV & L6_IGKJ1*01 (Fab, V domains shown)
VH: B1 VH with I51T, L52V, T54S, H56G
VL: not shown
notes: Fab, kappa light chain; also called H:APFF TV & L:wt; APFF I51T/N52V
Kd [2]: 10 to 100 nM

B5: Fab H:APFF VLTH & L6_IGKJ1*01 (Fab, V domains shown)
VH: B1 VH with I51V
VL: not shown
notes: Fab, kappa light chain; also called H:APPF VLTH; H:APFF VLTH & L:wt
Kd [2]: 1 to 10 nM

B6: Fab H:APFF VLTH & L:NDH LG (Fab, V domains shown)
VH: B1 VH with I51V
VL: B1 VL with S55G
notes: Fab, kappa light chain
fold increased binding affinity against the antibody mutants with heavy chain H:APFF ALTH [1]: ~10 fold

B7: Fab VH1-46_IGHD6-6*01_IGHJ1*01 S102A/S103P/S104F/H111F I51E/N52L/S54T/G56H & L6_IGKJ1*01 (Fab, V domains shown)
VH: B1 VH with I51E
VL: not shown
notes: Fab made in E. coli: VH on CH1 with His6 and Flag tags (Plasmid A), VL on kappa CL (Plasmid C); also called H: APFF ELTH & L: wt
ELISA absorbance at 450 nm [3]: 2.17 A450
ELISA absorbance at 450 nm [4]: 2.29 A450
ELISA absorbance at 450 nm [5]: 2.33 A450
ELISA absorbance at 450 nm [6]: 0.402 A450
ELISA absorbance at 450 nm [7]: 2.29 A450
ELISA absorbance at 450 nm [8]: 1.98 A450
ELISA absorbance at 450 nm [9]: 1.01 A450
ELISA absorbance at 450 nm [10]: 2.17 A450

B8: Fab VH1-46_IGHD6-6*01_IGHJ1*01 S102A/S103P/S104F/H111F I51V/N52L/S54T/G56H & L6_IGKJ1*01 S28N/S30D/S31H (Fab, V domains shown)
VH: B1 VH with I51V
VL: B1 VL with L52S, S55A
notes: Fab made in E. coli: VH on CH1 with His6 and Flag tags (Plasmid A), VL on kappa CL (Plasmid C); also called H: APFF VLTH & L: NDH
ELISA absorbance at 450 nm [11]: 0.608 A450
ELISA absorbance at 450 nm [12]: 0.776 A450
ELISA absorbance at 450 nm [7]: 0.979 A450
ELISA absorbance at 450 nm [13]: 0.288 A450
Kd [14]: 2.7 nM
koff [14]: 0.00113 s⁻¹
kon [14]: 430000 M⁻¹ s⁻¹

B9: Fab VH1-46_IGHD6-6*01_IGHJ1*01 S102A/S103P/S104F/H111F I51V/N52L/S54T/G56H & L6_IGKJ1*01 S28N/S30D/S31H S52L/A55G (Fab, V domains shown)
VH: B1 VH with I51V
VL: B1 VL with S55G
notes: Fab made in E. coli: VH on CH1 with His6 and Flag tags (Plasmid A), VL on kappa CL (Plasmid C); also called H: APFF VLTH & L: NDH LG
ELISA absorbance at 450 nm [11]: 0.755 A450
ELISA absorbance at 450 nm [12]: 0.916 A450
ELISA absorbance at 450 nm [7]: 1.06 A450
ELISA absorbance at 450 nm [13]: 0.397 A450
